Experimental findings from PMC4682845 (2015) are described below.

The target in this assay is […]-para-nitroanilide (TQ6-pNA) peptide substrate. The assay can be described thus: ITC. In general terms: Isothermal titration calorimetry measures the heat released or taken up as one component is titrated into another.

B1: MERS-CoV main protease (M^pro), wild type, authentic N-terminus (enzyme)
chain: SGLVKMSHPSGDVEACMVQVTCGSMTLNGLWLDNTVWCPRHVMCPADQLSDPNYDALLISMTNHSFSVQKHIGAPANLRVVGHAMQGTLLKLTVDVANPSTPAYTFTTVKPGAAFSVLACYNGRPTGTFTVVMRPNYTIKGSFLCGSCGSVGYTKEGSVINFCYMHQMELANGTHTGSAFDGTMYGAFMDKQVHQVQLTDKYCSVNVVAWLYAAILNGCAWFVKPNRTSVVSFNEWALANQFTEFVGTQSVDMLAVKTGVAIEQLLYAIQQLYTGFQGKQILGSTMLEDEFTPEDVNMQIMGVVMQ
For the molecule B1, the affinity, expressed as Kd, was 20.3 µM.
